Target: T1, cardiotoxin 3 (CTX3) (Naja naja atra (Taiwan cobra), UniProt P60301 22-81)
T1 sequence: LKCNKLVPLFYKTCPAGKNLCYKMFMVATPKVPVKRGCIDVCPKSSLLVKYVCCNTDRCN
Experiment: fluorescence quenching titration; 20 nM aptamer; >80% quenching, saturated at 400 nM CTX3; 10 mM HEPES pH 8.0, 30 C, 5 min incubation, no added salt stated; 20 nM aptamer or 10 nM MB
Conditions: protein: native; label: 5'-FAM; 3'-DABCYL

Binder: GCGAGGTGTTCGAGAGTTAGGGGCGACATGACCAAACGTT (ssDNA) [DNA aptamer against CTX3]
- binding result: binds
